Read-outs that look alike come from different tables or passages of the source.
How the values were obtained:
[1] = target: T1, SARS-CoV-2 receptor binding domain (RBD), wild type, His-tagged (SARS-CoV-2, UniProt P0DTC2 319-541); experiment: method and format not given
T1 construct: domain: RBD; also called His-tagged RBD; BEI NR52309

[2] = target: T1, SARS-CoV-2 receptor binding domain …; experiment: method and format not given; remark: listed apart in the source
[3] = target: T1, SARS-CoV-2 receptor binding domain …; experiment: BLI competition on His-tagged RBD, after 1st Ab 46
[4] = target: T1, SARS-CoV-2 receptor binding domain …; experiment: BLI competition on His-tagged RBD, after 1st Ab 82
[5] = target: T1, SARS-CoV-2 receptor binding domain …; experiment: BLI competition on His-tagged RBD, after 1st Ab 52
[6] = target: T1, SARS-CoV-2 receptor binding domain …; experiment: BLI competition on His-tagged RBD, after 1st Ab 298
[7] = target: T1, SARS-CoV-2 receptor binding domain …; experiment: BLI competition on His-tagged RBD, after 1st Ab 236
[8] = target: T1, SARS-CoV-2 receptor binding domain …; experiment: BLI competition on His-tagged RBD, after 1st Ab 80
[9] = target: T1, SARS-CoV-2 receptor binding domain …; experiment: BLI competition on His-tagged RBD, after 1st Ab 324
[10] = target: T2, SARS-CoV-2 prefusion S ectodomain (Spike trimer), His-tagged (SARS-CoV-2, UniProt P0DTC2 14-1213); experiment: BLI, His-tagged Spike on Ni-NTA sensor
T2 construct: extracellular domain; also called SARS-CoV-2 Spike; S protein

B1: mAb 120 (antibody, V domains shown)
VH: QVQLVQSGAEVKKPGASVKVSCKASGYTFTSYDINWVRQAPGQGLEWMGMIDPSGGSTSYAQKFQGRVTMTRDTSTSTVYMELSSLRSEDTAVYYCAKDFGGGTRYDYWYFDLWGRGTLVTVSS
VL: EIVMTQSPATLSVSPGERATLSCRASQSVSSRYLAWYQQKPGQAPRLLIYGASTRATGIPARFSGSGSGTEFTLTISSLQSEDFAVYYCQQYYTTPRTFGQGTRLEIKR
notes: also called IgG 120; Antibody 120
- Kd [1]: 24 nM
- Kd [2]: 24 nM

B2: mAb 160 (antibody, V domains shown)
VH: QVQLVQSGAEVKKPGASVKVSCKASGYTFTGHDMHWVRQAPGQGLEWMGIINPSGGSTSYAQKFQGRVTMTRDTSTSTVYMELSSLRSEDTAVYYCARANSLRYYYGMDVWGQGTMVTVSS
VL: DIQMTQSPSSLSASVGDRVTITCRASQSVSSWLAWYQQKPGKAPKLLIYAASSLQSGVPSRFSGSGSGTDFTLTISSLQPEDFATYYCQQGYTTPYTFGQGTKLEIKR
notes: also called IgG 160; Antibody 160
- Kd [1]: 7.7 nM
- Kd [2]: 7.7 nM

B3: mAb 46 (antibody, V domains shown)
VH: EVQLLESGGGLVQPGRSLRLSCAASGFTFSSYAMSWVRQAPGKGLEWVSTIYSGGSTYYADSVKGRFTISRDNSKNTLYLQMNSLRAEDTAVYYCARGDSRDAFDIWGQGTMVTVSS
VL: DIQMTQSPSSLSASVGDRVTITCRASQSISSWLAWYQQKPGKAPKLLIYDASNLETGVPSRFSGSGSGTDFTLTISSLQPEDFATYYCQQSYSTPFTFGPGTKVDIKR
notes: also called IgG 46; Antibody 46
- Kd [1]: 83 nM
- RBD binding of 2nd Ab after 1st Ab (heat map) [3]: 0.2
- RBD binding of 2nd Ab after 1st Ab (heat map) [4]: 1.2
- RBD binding of 2nd Ab after 1st Ab (heat map) [5]: 0.2
- RBD binding of 2nd Ab after 1st Ab (heat map) [6]: 1.7
- Kd [2]: 83 nM
- RBD binding of 2nd Ab after 1st Ab (heat map) [7]: 1.7
- RBD binding of 2nd Ab after 1st Ab (heat map) [8]: 1.3
- RBD binding of 2nd Ab after 1st Ab (heat map) [9]: 1.7

B4: mAb 64 (antibody, V domains shown)
VH: EVQLLESGGGLVQPGGSLRLSCAASGFPFSQHGMHWVRQAPGKGLEWVSAIDRSGSYIYYADSVKGRFTISRDNSKNTLYLQMNSLRAEDTAVYYCARDTYGGKVTYFDYWGQGTLVTVSS
VL: DIQMTQSPSSLSASVGDRVTITCRASQGISSHLAWYQQKPGKAPKLLIYDASNLETGVPSRFSGSGSGTDFTLTISSLQPEDFATYYCQQTYSTPWTFGQGTKVEIKR
notes: also called IgG 64; Antibody 64
- Kd [1]: 97 nM
- Kd [2]: 97 nM

B5: mAb 349 (antibody, V domains shown)
VH: EVQLLESGGGLVQPGGSLRLSCAASGFTFSNYGMHWVRQAPGKGLEWVSGISSAGSITNYADSVKGRFTISRDNSKNTLYLQMNSLRAEDTAVYYCAGNHAGTTVTSEYFQHWGQGTLVTVSS
VL: DIQMTQSPSSLSASVGDRVTITCRASQSISSWLAWYQQKPGKAPKLLIYDTSNLETGVPSRFSGSGSGTDFTLTISSLQPEDFATYYCQQSYTTPWTFGQGTRLEIKR
notes: also called IgG 349; Antibody 349
- Kd [1]: 74 nM
- Kd [2]: 74 nM

B6: mAb 324 (antibody, V domains shown)
VH: QVQLVQSGAEVKKPGASVKVSCKASGGTFNNYGISWVRQAPGQGLEWMGWMNPNSGNTGYAQKFQGRVTMTRDTSTSTVYMELSSLRSEDTAVYYCARVGDYGDYIVSPFDLWGRGTLVTVSS
VL: DIQMTQSPSSLSASVGDRVTITCRASQSITTYLNWYQQKPGKAPKLLIYDASNLETGVPSRFSGSGSGTDFTLTISSLQPEDFATYYCQQSYSTPPTFGQGTKVEIKR
notes: also called IgG 324; Antibody 324
- Kd [1]: 111 nM
- RBD binding of 2nd Ab after 1st Ab (heat map) [3]: 1.2
- RBD binding of 2nd Ab after 1st Ab (heat map) [4]: 0.2
- RBD binding of 2nd Ab after 1st Ab (heat map) [5]: 1
- RBD binding of 2nd Ab after 1st Ab (heat map) [6]: 0.2
- Kd [2]: 111 nM
- RBD binding of 2nd Ab after 1st Ab (heat map) [7]: 0.3
- RBD binding of 2nd Ab after 1st Ab (heat map) [8]: 0.1
- RBD binding of 2nd Ab after 1st Ab (heat map) [9]: 0.4

B7: mAb 108 (antibody, V domains shown)
VH: QVQLVQSGAEVKKPGASVKVSCKASGYIFSRYAIHWVRQAPGQGLEWMGWMNPISGNTDYAPNFQGRVTMTRDTSTSTVYMELSSLRSEDTAVYYCAKDGSQLAYLVEYFQHWGQGTLVTVSS
VL: DIQMTQSPSSLSASVGDRVTITCRASQVITNNLAWYQQKPGKAPKLLIYDASTLETGVPSRFSGSGSGTDFTLTISSLQPEDFATYYCQQSYTFPYTFGQGTKVEIKR
- Kd [1]: 72 nM
- Kd [2]: 72 nM

B8: mAb 158 (antibody, V domains shown)
VH: QVQLVQSGAEVKKPGASVKVSCKASGYTFTGYYMHWVRQAPGQGLEWMGWINPLNGGTNFAPKFQGRVTMTRDTSTSTVYMELSSLRSEDTAVYYCARDPGGSYSNDAFDIWGQGTLVTVSS
VL: DIQMTQSPSSLSASVGDRVTITCRASQSISRYLNWYQQKPGKAPKLLIYDASNLESGVPSRFSGSGSGTDFTLTISSLQPEDFATYYCQQANSFPLTFGGGTKVDIKR
notes: also called IgG 158; Antibody 158
- Kd [1]: 172 nM
- Kd [2]: 172 nM

B9: mAb 56 (antibody, V domains shown)
VH: QVQLVQSGAEVKKPGASVKVSCKASGYTFTSYGISWVRQAPGQGLEWMGWISAYNGNTNYAQKLQGRVTMTRDTSTSTVYMELSSLRSEDTAVYYCARDIGPIDYWGQGTLVTVSS
VL: DIQMTQSPSSLSASVGDRVTITCRASQGISSYLAWYQQKPGKAPKLLIYDASNLQSGVPSRFSGSGSGTDFTLTISSLQPEDFATYYCQQANSFPSTFGQGTKVEIKR
notes: also called IgG 56; Antibody 56
- Kd [1]: 23 nM
- Kd [2]: 23 nM

B10: mAb 82 (antibody, V domains shown)
VH: QVQLVQSGAEVKKPGASVKVSCKASGGSFSTSAFYWVRQAPGQGLEWMGWINPYTGGTNYAQKFQGRVTMTRDTSTSTVYMELSSLRSEDTAVYYCARSRALYGSGSYFDYWGQGTLVTVSS
VL: DIQMTQSPSSLSASVGDRVTITCRASQVISNYLAWYQQKPGKAPKLLIYDASNLETGVPSRFSGSGSGTDFTLTISSLQPEDFATYYCQQSFSPPPTFGQGTRLEIKR
notes: also called IgG 82; Antibody 82
- Kd [1]: 206 nM
- RBD binding of 2nd Ab after 1st Ab (heat map) [3]: 1.4
- RBD binding of 2nd Ab after 1st Ab (heat map) [4]: 0.4
- RBD binding of 2nd Ab after 1st Ab (heat map) [5]: 0.6
- RBD binding of 2nd Ab after 1st Ab (heat map) [6]: 0.5
- Kd [2]: 206 nM
- RBD binding of 2nd Ab after 1st Ab (heat map) [7]: 0.6
- RBD binding of 2nd Ab after 1st Ab (heat map) [8]: 0.6
- RBD binding of 2nd Ab after 1st Ab (heat map) [9]: 0.8

B11: mAb 178 (antibody, V domains shown)
VH: QVQLVQSGAEVKKPGASVKVSCKASGYTFTDYHMHWVRQAPGQGLEWMGWINPNSGGTNYAQKFQGRVTMTRDTSTSTVYMELSSLRSEDTAVYYCARDISSWYEITKFDPWGQGTLVTVSS
VL: EIVMTQSPATLSVSPGERATLSCKASQSVSGTYLAWYQQKPGQAPRLLIYGASTRATGIPARFSGSGSGTEFTLTISSLQSEDFAVYYCLQTHSYPPTFGQGTKVEIKR
notes: also called IgG 178; Antibody 178
- Kd [1]: 72 nM
- Kd [2]: 72 nM

B12: 4A8 IgG (antibody, V domains shown)
VH: EVQLVESGAEVKKPGASVKVSCKVSGYTLTELSMHWVRQAPGKGLEWMGGFDPEDGETMYAQKFQGRVTMTEDTSTDTAYMELSSLRSEDTAVYYCATSTAVAGTPDLFDYYYGMDVWGQGTTVTVSS
VL: EIVMTQSPLSSPVTLGQPASISCRSSQSLVHSDGNTYLSWLQQRPGQPPRLLIYKISNRFSGVPDRFSGSGAGTDFTLKISRVEAEDVGVYYCTQATQFPYTFGQGTKVDIK
notes: also called IgG 4A8
- Kd [10]: 1.42 nM
- koff [10]: 0.000191 s⁻¹
- kon [10]: 133000 M⁻¹ s⁻¹

B13: mAb 128 (antibody, V domains shown)
VH: QVQLVQSGAEVKKPGASVKVSCKASGYTFTHYYMHWVRQAPGQGLEWMGIINPSSSSASYSQKFQGRVTMTRDTSTSTVYMELSSLRSEDTAVYYCARDGRYGSGSYPFDYWGQGTLVTVSS
VL: DIQMTQSPSSLSASVGDRVTITCRASQNISRYLNWYQQKPGKAPKLLIYDASNLETGVPSRFSGSGSGTDFTLTISSLQPEDFATYYCQQANGFPPTFGQGTKLEIKR
- Kd [1]: 57 nM
- Kd [2]: 57 nM

B14: mAb 52 (antibody, V domains shown)
VH: QVQLVQSGAEVKKPGSSVKVSCKASGYTFTSYGISWVRQAPGQGLEWMGGIIPMFGTTNYAQKFQGRVTITADKSTSTAYMELSSLRSEDTAVYYCARDRGDTIDYWGQGTLVTVSS
VL: DIQMTQSPSSLSASVGDRVTITCRASQGISNNLNWYQQKPGKAPKLLIYAASSLESGVPSRFSGSGSGTDFTLTISSLQPEDFATYYCQQGNGFPLTFGPGTKVDIKR
notes: also called IgG 52; Antibody 52
- RBD binding of 2nd Ab after 1st Ab (heat map) [3]: 0.5
- RBD binding of 2nd Ab after 1st Ab (heat map) [4]: 0.8
- RBD binding of 2nd Ab after 1st Ab (heat map) [5]: 0.4
- RBD binding of 2nd Ab after 1st Ab (heat map) [6]: 1.4
- RBD binding of 2nd Ab after 1st Ab (heat map) [7]: 1.5
- RBD binding of 2nd Ab after 1st Ab (heat map) [8]: 1.3
- RBD binding of 2nd Ab after 1st Ab (heat map) [9]: 1.5

B15: mAb 254 (antibody, V domains shown)
VH: EVQLLESGGGLVQPGGSLRLSCAASGFTFSSSAMHWVRQAPGKGLEWVSAIGTGGDTYYADSVKGRFTISRDNSKNTLYLQMNSLRAEDTAVYYCAREGDGYNFYFDYWGQGTLVTVSS
VL: DIQMTQSPSSLSASVGDRVTITCRASQGISSYLAWYQQKPGKAPKLLIYDASSLQIGVPSRFSGSGSGTDFTLTISSLQPEDFATYYCLQSYSTPPWTFGQGTKVEIKR
notes: also called IgG 254; Antibody 254
- Kd [1]: 127 nM
- Kd [2]: 127 nM

Reference: patent publication US20250002564A1 (HOSPITAL FOR SICK CHILDREN, published 2025)
